How the values were obtained:
[1] = biological target: Rs-AFP1 (Raphanus sativus antifungal protein 1) (Raphanus sativus)
[2] = biological target: Rs-AFP2 (Raphanus sativus antifungal protein 2) (Raphanus sativus)

Substance | antifungal activity on Fusarium culmorum after digestion with the protease [1] [fold] | antifungal activity on Fusarium culmorum after digestion with the protease [2] [fold]
pronase E (enzyme) | 10 | 10
trypsin (enzyme) | 10 | 10
chymotrypsin (enzyme) | 10 | 10
proteinase K (from UniProt P06873) (enzyme) | 10 | 10

— patent publication US5824869
